The assay addresses unliganded V1/V2 loop-deleted envelope glycoproteins. Put plainly: ELISA. On the technique in general: In an ELISA, binding on a coated surface is turned into a signal by an enzyme label.

Values joined by “and” are separate entries in the source; they are usually repeats but may differ in a detail not shown here. Equal values may be shown once.

For the substance “C34-Ig fusion protein (from UniProt P04578 628-661) (Fc fusion)”, the C34-Ig binding without sCD4 as percent of that with sCD4 was 20% and 45%.

(Values after publication PMC3121797.)
